Experimental findings from paper PMC6636993 are described below.

Assay [1] concerns the target PVY coat protein N-terminal deletion mutant ΔN49 (potato virus Y (NTN strain)). Kind of assay: SEC-MALS. On the technique in general: SEC sorts molecules by how far they enter the pores of the column.
The target is the same in assay [2]. Description: cryo-EM 2D class averages.

For orientation: stoichiometry N means a count of units in the complex or per binding partner. Regarding “PVY coat protein N-terminal deletion mutant ΔN49 (domain or fragment)”, the stoichiometry N in assay [1] and in assay [2] was 8 each time.
